The source of these data is doi:10.1101/215541, “DHX36 binding at G-rich sites in mRNA untranslated regions promotes translation”.

For this series, the target named is T1, FH-DHX36 (RHAU, G4R1) (human (expressed in HEK293 T-REx Flp-In …, UniProt Q9H2U1 1-1008)).
T1 sequence: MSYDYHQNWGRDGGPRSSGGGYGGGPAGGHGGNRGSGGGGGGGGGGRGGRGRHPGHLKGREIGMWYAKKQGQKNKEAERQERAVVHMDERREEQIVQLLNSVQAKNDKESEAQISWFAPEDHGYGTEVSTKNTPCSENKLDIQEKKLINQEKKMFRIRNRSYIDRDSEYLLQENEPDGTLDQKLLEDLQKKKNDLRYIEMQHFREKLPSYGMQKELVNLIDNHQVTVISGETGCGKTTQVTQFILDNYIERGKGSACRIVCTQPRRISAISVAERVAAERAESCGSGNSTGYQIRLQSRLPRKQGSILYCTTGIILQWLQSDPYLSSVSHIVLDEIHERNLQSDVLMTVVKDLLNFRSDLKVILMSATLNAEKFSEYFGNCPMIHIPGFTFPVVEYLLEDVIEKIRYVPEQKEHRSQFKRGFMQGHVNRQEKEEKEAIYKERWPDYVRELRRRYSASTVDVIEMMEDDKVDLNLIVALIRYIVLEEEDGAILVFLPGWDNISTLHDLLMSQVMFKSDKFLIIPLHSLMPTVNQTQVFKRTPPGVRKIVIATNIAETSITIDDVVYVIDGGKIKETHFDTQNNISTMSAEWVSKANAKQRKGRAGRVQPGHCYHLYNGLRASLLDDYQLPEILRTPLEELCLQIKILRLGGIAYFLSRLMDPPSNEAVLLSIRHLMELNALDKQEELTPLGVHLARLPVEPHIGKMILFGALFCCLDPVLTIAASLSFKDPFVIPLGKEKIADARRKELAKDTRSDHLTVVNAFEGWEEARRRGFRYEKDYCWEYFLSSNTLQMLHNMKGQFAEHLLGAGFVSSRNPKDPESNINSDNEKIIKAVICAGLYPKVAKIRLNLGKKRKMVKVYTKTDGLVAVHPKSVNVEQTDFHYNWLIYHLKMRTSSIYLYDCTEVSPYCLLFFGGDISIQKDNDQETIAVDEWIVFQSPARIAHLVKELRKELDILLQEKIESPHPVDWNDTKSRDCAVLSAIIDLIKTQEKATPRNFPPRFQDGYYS
Kind of series: MST; 25 nM oligonucleotide, DHX36 up to 50 nM; MST: 1x MST buffer (composition not stated), 0.5% BSA, 5 mM DTT; 25 nM Cy5 oligo (folding buffer for CD oligos: 10 mM Tris pH 7.5, 100 mM KCl, 1 mM EDTA); temperature not stated. The conditions noted are these: protein: recombinant, tags: N-terminal FLAG-HA (pFRT-FlagHA vector), label: 5'-Cy5.

AAAAAGGAGGAGGAGGAGGA (structured_DNA) [DHX36 RRE for MST (G-rich PAR-CLIP motif)]: the binding result (parallel G4 (CD on the longer A10 version)) is recorded as “binds”.
Regarding AAAAAGCAGCAGGAGCAGCA (ssDNA) [mutated DHX36 RRE for MST], the binding result (no G4 signature (CD on the longer A10 version)) was “no binding”.
